According to CN113956355A:

B1: 兔单克隆抗体OTIR5G8 (antibody, V domains shown)
VH: QSLEESGGRLVTPGTPLTLTCTASGFSLISYDMSWVRQAPGKGLEWIGFLGSGSSAYYASWAKGRFTISRTSTTVDLKITSPTTEDTATYFCARGTGWGQGTLVTVSS
VL: AQVLTQTPSSVSAAVGGTVTINCQASQSVYKNNWLSWFQQKPGQPLKRLTYRASTLDSGVPSRFSGSGSGTEFTLTISDVQCDDAATYYCLGSYDCSSADFGGGTEMVVK
B2: 兔单克隆抗体OTIR5D11 (antibody, V domains shown)
VH: QSVEESGGRLVTPGTPLTLTCTVSGFSLSSYAMNWVRQAPGKGLEWIGYIDSSGTIYYASWAKGRFTISKTSTTVDLKITSPTTEDTATYFCARGMNWGQGTLVTVS
VL: AAVLTQTPSPVSAAVGGTVTISCQSSQSVYDNNALAWYQQKPGQPPKRLIYKASTLDSGVPSRFSGSGSGTQFTLTISGVQCDDAATYYCLGEYYDDAEFGGGTEVVVK

Legend:
人脑利钠肽(BNP) (human) [1] = molecular target: 人脑利钠肽(BNP) (human) (UniProt P16860); assay: sandwich ELISA, 5G8 coated, HRP-5D11 detection; plasma sample with BNP 108 pg/ml
Chain of UniProt P16860 (P16860 103-134): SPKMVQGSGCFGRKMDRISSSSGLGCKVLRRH

人脑利钠肽(BNP) (human) [2] = molecular target: 人脑利钠肽(BNP) (human) (UniProt P16860); assay: sandwich ELISA, 5G8 coated, HRP-5D11 detection; plasma sample with BNP 2046.3 pg/ml
人脑利钠肽(BNP) (human) [3] = molecular target: 人脑利钠肽(BNP) (human) (UniProt P16860); assay: sandwich ELISA kit, 5G8 coated at 5 μg/ml, HRP-5D11 detection; synthetic BNP standard 31.25 pg/ml
人脑利钠肽(BNP) (human) [4] = molecular target: 人脑利钠肽(BNP) (human) (UniProt P16860); assay: sandwich ELISA, 5G8 coated, HRP-5D11 detection; plasma sample with BNP 287 pg/ml
人脑利钠肽(BNP) (human) [5] = molecular target: 人脑利钠肽(BNP) (human) (UniProt P16860); assay: indirect ELISA, serial two-fold dilution of the antibody; coated antigen taken as BNP
人脑利钠肽(BNP) (human) [6] = molecular target: 人脑利钠肽(BNP) (human) (UniProt P16860); assay: sandwich ELISA, 5G8 coated, HRP-5D11 detection; 0 pg/ml BNP (blank)
人脑利钠肽(BNP) (human) [7] = molecular target: 人脑利钠肽(BNP) (human) (UniProt P16860); assay: sandwich ELISA kit, 5G8 coated at 5 μg/ml, HRP-5D11 detection; synthetic BNP standard 62.5 pg/ml
人脑利钠肽(BNP) (human) [8] = molecular target: 人脑利钠肽(BNP) (human) (UniProt P16860); assay: sandwich ELISA kit, 5G8 coated at 5 μg/ml, HRP-5D11 detection; synthetic BNP standard 3.90625 pg/ml
人脑利钠肽(BNP) (human) [9] = molecular target: 人脑利钠肽(BNP) (human) (UniProt P16860); assay: sandwich ELISA kit, 5G8 coated at 5 μg/ml, HRP-5D11 detection; synthetic BNP standard 125 pg/ml
人脑利钠肽(BNP) (human) [10] = molecular target: 人脑利钠肽(BNP) (human) (UniProt P16860); assay: sandwich ELISA, 5G8 coated, HRP-5D11 detection; plasma sample with BNP 1125.7 pg/ml
人脑利钠肽(BNP) (human) [11] = molecular target: 人脑利钠肽(BNP) (human) (UniProt P16860); assay: sandwich ELISA kit, 5G8 coated at 5 μg/ml, HRP-5D11 detection; synthetic BNP standard 250 pg/ml
人脑利钠肽(BNP) (human) [12] = molecular target: 人脑利钠肽(BNP) (human) (UniProt P16860); assay: sandwich ELISA, 5G8 coated, HRP-5D11 detection; plasma sample with BNP 3287.3 pg/ml
人脑利钠肽(BNP) (human) [13] = molecular target: 人脑利钠肽(BNP) (human) (UniProt P16860); assay: sandwich ELISA kit, 5G8 coated at 5 μg/ml, HRP-5D11 detection; 0 pg/ml BNP (blank)
人脑利钠肽(BNP) (human) [14] = molecular target: 人脑利钠肽(BNP) (human) (UniProt P16860); assay: sandwich ELISA kit, 5G8 coated at 5 μg/ml, HRP-5D11 detection; synthetic BNP standard 7.8125 pg/ml
人脑利钠肽(BNP) (human) [15] = molecular target: 人脑利钠肽(BNP) (human) (UniProt P16860); assay: sandwich ELISA, 5G8 coated, HRP-5D11 detection; plasma sample with BNP 425.6 pg/ml
人脑利钠肽(BNP) (human) [16] = molecular target: 人脑利钠肽(BNP) (human) (UniProt P16860); assay: indirect ELISA, BNP coated at 2 μg/ml, purified antibody diluted 10^4-fold; mean value
人脑利钠肽(BNP) (human) [17] = molecular target: 人脑利钠肽(BNP) (human) (UniProt P16860); assay: sandwich ELISA, 5G8 coated, HRP-5D11 detection; plasma sample with BNP 39.7 pg/ml
人脑利钠肽(BNP) (human) [18] = molecular target: 人脑利钠肽(BNP) (human) (UniProt P16860); assay: sandwich ELISA kit, 5G8 coated at 5 μg/ml, HRP-5D11 detection; synthetic BNP standard 15.625 pg/ml

Binder | OD450nm (人脑利钠肽(BNP) (human) [1]) [OD450nm] | OD450nm (人脑利钠肽(BNP) (human) [2]) [OD450nm] | OD450nm (人脑利钠肽(BNP) (human) [3]) [OD450nm] | OD450nm (人脑利钠肽(BNP) (human) [4]) [OD450nm] | 效价 (ELISA titer) (人脑利钠肽(BNP) (human) [5]) | OD450nm (人脑利钠肽(BNP) (human) [6]) [OD450nm] | OD450nm (人脑利钠肽(BNP) (human) [7]) [OD450nm] | OD450nm (人脑利钠肽(BNP) (human) [8]) [OD450nm] | OD450nm (人脑利钠肽(BNP) (human) [9]) [OD450nm] | OD450nm (人脑利钠肽(BNP) (human) [10]) [OD450nm] | OD450nm (人脑利钠肽(BNP) (human) [11]) [OD450nm] | OD450nm (人脑利钠肽(BNP) (human) [12]) [OD450nm] | OD450nm (人脑利钠肽(BNP) (human) [13]) [OD450nm] | OD450nm (人脑利钠肽(BNP) (human) [14]) [OD450nm] | OD450nm (人脑利钠肽(BNP) (human) [15]) [OD450nm] | OD450 (人脑利钠肽(BNP) (human) [16]) [OD450] | OD450nm (人脑利钠肽(BNP) (human) [17]) [OD450nm] | OD450nm (人脑利钠肽(BNP) (human) [18]) [OD450nm]
B1 | 0.951 | 3.48 | 0.224 | 1.37 | 6.6e+06 | 0.026 | 0.529 | 0.024 | 1.11 | 2.8 | 2 | 3.6 | 0.01 | 0.033 | 1.74 | 2.85 | 0.273 | 0.086
B2 |  |  |  |  | 1.3e+07 |  |  |  |  |  |  |  |  |  |  | 2.85 |  | 
